Earlier results as cited in paper PMC5548488.

Molecular target: CAST/ELKS (UniProt Q8K3M6)
Chain of UniProt Q8K3M6 (Q8K3M6 whole entry): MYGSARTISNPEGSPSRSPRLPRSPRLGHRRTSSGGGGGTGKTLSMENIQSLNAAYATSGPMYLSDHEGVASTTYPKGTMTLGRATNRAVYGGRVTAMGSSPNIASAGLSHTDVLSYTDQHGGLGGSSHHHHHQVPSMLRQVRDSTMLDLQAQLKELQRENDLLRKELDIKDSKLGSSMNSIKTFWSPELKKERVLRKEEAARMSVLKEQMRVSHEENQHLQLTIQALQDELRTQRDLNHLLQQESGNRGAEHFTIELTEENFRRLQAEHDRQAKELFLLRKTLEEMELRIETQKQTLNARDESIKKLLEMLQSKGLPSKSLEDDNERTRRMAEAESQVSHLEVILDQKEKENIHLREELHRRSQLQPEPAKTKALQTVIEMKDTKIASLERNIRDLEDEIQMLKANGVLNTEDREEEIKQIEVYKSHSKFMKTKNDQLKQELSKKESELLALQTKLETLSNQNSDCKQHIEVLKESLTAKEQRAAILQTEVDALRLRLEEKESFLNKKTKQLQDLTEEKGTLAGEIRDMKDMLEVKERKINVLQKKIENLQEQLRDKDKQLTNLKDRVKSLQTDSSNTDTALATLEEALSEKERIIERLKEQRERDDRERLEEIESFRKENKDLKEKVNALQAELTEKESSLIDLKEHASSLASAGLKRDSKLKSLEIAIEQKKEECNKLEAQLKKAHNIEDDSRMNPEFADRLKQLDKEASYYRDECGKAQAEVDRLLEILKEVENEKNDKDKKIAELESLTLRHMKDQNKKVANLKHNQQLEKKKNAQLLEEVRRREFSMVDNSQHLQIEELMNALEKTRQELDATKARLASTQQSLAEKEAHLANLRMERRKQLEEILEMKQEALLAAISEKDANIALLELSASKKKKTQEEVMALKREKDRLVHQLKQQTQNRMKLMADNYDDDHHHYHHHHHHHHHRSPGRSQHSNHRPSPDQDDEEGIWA

With RIM PDZ (from UniProt Q86UR5) as the substance, how does the Kd read?
The Kd was 200 nM.
